# Measurements reported in patent US20120316071A1 (published 2012).
# Numbering of substitutions follows the chain as printed. Names may count otherwise.
# T1: rHuman Erythropoietin R/Fc Chimera, CF (R&D Systems Cat#963-ER) (human, UniProt P19235 25-250)
# T1 construct: Bought recombinant protein; also called EPO R; EPO R/Fc; Fc part of the bought chimera not given
# T1 sequence (looked up): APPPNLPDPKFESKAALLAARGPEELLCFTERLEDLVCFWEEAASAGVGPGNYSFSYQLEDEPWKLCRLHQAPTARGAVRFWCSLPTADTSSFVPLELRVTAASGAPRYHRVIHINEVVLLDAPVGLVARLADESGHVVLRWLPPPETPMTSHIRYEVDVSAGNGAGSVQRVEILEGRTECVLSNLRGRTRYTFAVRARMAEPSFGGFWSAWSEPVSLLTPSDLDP
# B1: Fab VH5-51_IGHD5-18*01>3_IGHJ4*01 G100K/G104T (H:KT) & V3-4_IGLJ1*01 T53A (Fab, V domains shown)
# VH: EVQLVQSGAEVKKPGESLKISCKGSGYSFTSYWIGWVRQMPGKGLEWMGIIYPGDSDTRYSPSFQGQVTISADKSISTAYLQWSSLKASDTAMYYCARRKYSYTYDYFDYWGQGTLVTVSS
# VL: QTVVTQEPSFSVSPGGTVTLTCGLSSGSVSTSYYPSWYQQTPGQAPRTLIYSANTRSSGVPDRFSGSILGNKAALTITGAQADDESDYYCVLYMGSGISYVFGTGTKVTVL
# notes: Fab (CH1 with His6/Flag tags from Plasmid A, lambda CL from Plasmid E); also called G100K/G104T & T53A
# B2: Fab VH1-46_IGHD6-6*01_IGHJ1*01 & L6_IGKJ1*01 (Fab, V domains shown)
# VH: QVQLVQSGAEVKKPGASVKVSCKASGYTFTSYYMHWVRQAPGQGLEWMGIINPSGGSTSYAQKFQGRVTMTRDTSTSTVYMELSSLRSEDTAVYYCAREEYSSSSAEYFQHWGQGTLVTVSS
# VL: not shown
# notes: Germline Fab made in E. coli: VH in Plasmid A (CH1, His6 and Flag tags), kappa VL in Plasmid C (kappa CL); also called parental; wildtype
# B3: Fab VH1-46_IGHD6-6*01_IGHJ1*01 S102A/S103P/S104F/H111F S84G & L6_IGKJ1*01 (Fab, V domains shown)
# VH: B2 VH with S84G, S102A, S103P, S104F, H111F
# VL: not shown
# notes: Tested as Fab expressed in E. coli; also called APFF S84G
# B4: Fab VH1-46_IGHD6-6*01_IGHJ1*01 S102A/S103P/S104F/H111F S84H & L6_IGKJ1*01 (Fab, V domains shown)
# VH: B2 VH with S84H, S102A, S103P, S104F, H111F
# VL: not shown
# notes: Tested as Fab expressed in E. coli; also called APFF S84H
# B5: Fab VH1-46_IGHD6-6*01_IGHJ1*01 S102A/S103P/S104F/H111F S84Q & L6_IGKJ1*01 (Fab, V domains shown)
# VH: B2 VH with S84Q, S102A, S103P, S104F, H111F
# VL: not shown
# notes: Tested as Fab expressed in E. coli; also called APFF S84Q
# B6: Fab VH1-46_IGHD6-6*01_IGHJ1*01 S102A/S103P/S104F/H111F S84T & L6_IGKJ1*01 (Fab, V domains shown)
# VH: B2 VH with S84T, S102A, S103P, S104F, H111F
# VL: not shown
# notes: Tested as Fab expressed in E. coli; also called APFF S84T
# B7: Fab VH1-46_IGHD6-6*01_IGHJ1*01 S102A/S103P/S104F/H111F S84R & L6_IGKJ1*01 (Fab, V domains shown)
# VH: B2 VH with S84R, S102A, S103P, S104F, H111F
# VL: not shown
# notes: Tested as Fab expressed in E. coli; also called APFF S84R
# B8: Fab VH1-46_IGHD6-6*01_IGHJ1*01 S102A/S103P/S104F/H111F S84K & L6_IGKJ1*01 (Fab, V domains shown)
# VH: B2 VH with S84K, S102A, S103P, S104F, H111F
# VL: not shown
# notes: Tested as Fab expressed in E. coli; also called APFF S84K
# B9: Fab VH1-46_IGHD6-6*01_IGHJ1*01 S102A/S103P/S104F/H111F S84N & L6_IGKJ1*01 (Fab, V domains shown)
# VH: B2 VH with S84N, S102A, S103P, S104F, H111F
# VL: not shown
# notes: Tested as Fab expressed in E. coli; also called APFF S84N
# B10: Fab VH1-46_IGHD6-6*01_IGHJ1*01 S104A & L6_IGKJ1*01 (Fab, V domains shown)
# VH: B2 VH with S104A
# VL: not shown
# notes: Heavy chain CDR3 alanine mutant of the parental Fab; Fab format as the parent (CH1 with His6/Flag tags, kappa CL)
# B11: Fab VH1-46_IGHD6-6*01_IGHJ1*01 S105A & L6_IGKJ1*01 (Fab, V domains shown)
# VH: B2 VH with S105A
# VL: not shown
# notes: as for B10
# B12: Fab VH3-23_IGHD2-21*01>3_IGHJ6*01 H100E/S108P/Y113G (EPG) & V2-13_IGLJ2*01 (Fab, V domains shown)
# VH: not shown
# VL: SSELTQDPAVSVALGQTVRITCQGDSLRSYYASWYQQKPGQAPVLVIYGKNNRPSGIPDRFSGSSSGNTASLTITGAQAEDEADYYCNSRDSSGNHLVVFGGGTKLTVL
# notes: Fab; CH1 (His and Flag tags) and lambda CL come from the expression vectors; also called H:EPG
# B13: Fab VH3-23_IGHD2-21*01>3_IGHJ6*01 H100E/S108P/Y113G (EPG) Y109W & V2-13_IGLJ2*01 (Fab, V domains shown)
# VH: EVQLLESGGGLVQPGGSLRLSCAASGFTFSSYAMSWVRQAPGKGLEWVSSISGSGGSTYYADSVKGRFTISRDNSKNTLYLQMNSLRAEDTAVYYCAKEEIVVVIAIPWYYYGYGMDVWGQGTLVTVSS
# VL: B12 VL
# notes: Fab; NNK mutant of the EPG heavy chain; CH1 (tags) and lambda CL come from the vectors
# Molecular target: T2, Recombinant Human DLL4 (delta-like protein 4) (human, UniProt Q9NR61 27-524)
# T2 construct: also called rHuman DLL4; Delta-like 4
# Experiment: ECL (MSD) multispot binding assay, Fab on immobilised recombinant human DLL4
row,Binder,ECL signal
1,B1,13200

# Molecular target: T3, Recombinant Human DLL4 (R&D Systems Cat#1506-D4/CF) (human, UniProt Q9NR61 27-529)
# T3 construct: Bought recombinant protein; also called rHuman DLL4; delta-like protein 4
# Experiment: surface plasmon resonance, Fab against recombinant human DLL4; standard deviation in parentheses
Binder,Kd [nM],koff [s⁻¹],kon [M⁻¹ s⁻¹]
B2,730,0.101,163000

# Molecular target: T4, Recombinant Human DLL4 (delta-like protein 4) (human, UniProt Q9NR61 27-524)
# T4 construct: Bought recombinant protein (R&D Systems Cat#1506-D4/CF); also called rHuman DLL4; Delta-like 4
# Experiment: ECL (MSD) multispot binding assay, immobilized DLL4, 10 nM Fab, signal over blank
row,Binder,Signal/Blank [10 nM Fab]
1,B3,346
2,B4,457
3,B5,413
4,B6,1080
5,B7,433
6,B8,448
7,B9,497

# Molecular target: T3, Recombinant Human DLL4 (R&D Systems …)
# Experiment: 96-well plate ECL (MSD) assay, DLL4 coated on plate, Fab at 0.04 µM; ECL signal on DLL4 over signal on blank well
row,Binder,Signal/Noise
1,B2,3.1
2,B10,1.3
3,B11,0.8

# Molecular target: T5, rHuman ErbB2/Fc Chimera, CF (R&D Systems Cat#1129-ER) (human, UniProt P04626 23-652)
# T5 construct: Bought recombinant protein; also called human epidermal growth factor 2 receptor; Fc part of the bought chimera not given
# Experiment: ECL multispot (MSD), 20 nM Fab;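 note: purified Fab binding to antigens on multispot plates, read by electrochemiluminescence with a TAG-labelled detection antibody, 1 h Fab incubation at 20 °C, signal expressed relative to each well's blank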
row,Binder,ECL signal ratio (column head gives no unit)
1,B12,11.7
2,B13,16.1

# Molecular target: T6, rHuman CD44/Fc Chimera, CF (R&D Systems Cat#3660-CD) (human, UniProt P16070 21-220)
# T6 construct: Bought recombinant protein; Fc part of the bought chimera not given
# Experiment: ECL multispot (MSD), 20 nM Fab;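 note: purified Fab binding to antigens on multispot plates, read by electrochemiluminescence with a TAG-labelled detection antibody, 1 h Fab incubation at 20 °C, signal expressed relative to each well's blank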
row,Binder,ECL signal ratio (column head gives no unit)
1,B12,1.7

# Molecular target: T7, rHuman IGF-1 sR, (IGF-1 sR), CF (R&D Systems Cat#391-GR) (human, UniProt P08069 31-932)
# T7 construct: Bought recombinant soluble receptor; also called insulin-like growth factor-1 soluble receptor
# Experiment: ECL multispot (MSD), 20 nM Fab;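 note: purified Fab binding to antigens on multispot plates, read by electrochemiluminescence with a TAG-labelled detection antibody, 1 h Fab incubation at 20 °C, signal expressed relative to each well's blank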
row,Binder,ECL signal ratio (column head gives no unit)
1,B12,1.7
2,B13,1.5

# Molecular target: T8, rHuman EGF R/Fc Chimera, CF (R&D Systems Cat#344-ER) (human, UniProt P00533 25-645)
# T8 construct: Bought recombinant protein; also called epidermal growth factor receptor; Fc part of the bought chimera not given
# Experiment: ECL multispot (MSD), 20 nM Fab;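 note: purified Fab binding to antigens on multispot plates, read by electrochemiluminescence with a TAG-labelled detection antibody, 1 h Fab incubation at 20 °C, signal expressed relative to each well's blank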
row,Binder,ECL signal ratio (column head gives no unit)
1,B12,8.4
2,B13,11.1

# Molecular target: T1, rHuman Erythropoietin R/Fc Chimera, CF …
# Experiment: ECL multispot (MSD), 20 nM Fab
row,Binder,ECL signal ratio (column head gives no unit)
1,B13,169

# Molecular target: T9, rHuman P-Cadherin/Fc Chimera, CF (R&D Systems Cat#861-PC) (human, UniProt P22223 108-654)
# T9 construct: Bought recombinant protein; Fc part of the bought chimera not given
# Experiment: ECL multispot (MSD), 20 nM Fab
row,Binder,ECL signal ratio (column head gives no unit)
1,B13,32

# Molecular target: T4, Recombinant Human DLL4 (delta-like …)
# Experiment: ELISA on plate-coated DLL4, absorbance at 450 nm, signal minus noise
row,Binder,ELISA (Signal-Noise)
1,B3,0.53
2,B4,0.41
3,B5,0.39
4,B6,0.4
5,B7,0.26
6,B8,0.29
7,B9,0.47
